{"source": "patent US20240400722A1", "about": "(MILTENYI BIOTEC B V, published 2024)", "binders": {"B1": {"name": "His tag-acVHH-WT anti-caffeine nanobody, soluble (VHH)", "VHH": "QVQLVESGGGLVQAGGSLRLSCTASGRTGTIYSMAWFRQAPGKEREFLATVGWSSGITYYMDSVKGRFTISRDKGKNTVYLQMDSLKPEDTAVYYCTATRAYSVGYDYWGQGTQVTVSS", "notes": "Expressed in E. coli; also called AB0; not shown: His tag"}, "B2": {"name": "M1 ΔAA displayed on yeast (VHH, not shown: large carriers; small tags and cut ends)", "chain": "B1 VHH with C22A, T50P, G52A, W53L, S54G, S55L, G56Q, I57S, C96A", "notes": "also called acVHH-M1 C22A C96A"}, "B3": {"name": "M1 ΔAV displayed on yeast (VHH, not shown: large carriers; small tags and cut ends)", "chain": "B1 VHH with C22A, T50P, G52A, W53L, S54G, S55L, G56Q, I57S, C96V", "notes": "also called acVHH-M1 C22A C96V"}, "B4": {"name": "acVHH-V104D displayed on yeast (Aga2p-HA-tag-(Gly4Ser)3 linker-acVHH-V104D-c-myc tag) (VHH, not shown: large carriers; small tags and cut ends)", "VHH": "B1 VHH with V104D"}, "B5": {"name": "M1 ΔFA displayed on yeast (VHH, not shown: large carriers; small tags and cut ends)", "chain": "B1 VHH with C22F, T50P, G52A, W53L, S54G, S55L, G56Q, I57S, C96A", "notes": "also called acVHH-M1 C22F C96A"}, "B6": {"name": "M1 ΔWA displayed on yeast (VHH, not shown: large carriers; small tags and cut ends)", "chain": "B1 VHH with C22W, T50P, G52A, W53L, S54G, S55L, G56Q, I57S, C96A", "notes": "also called acVHH-M1 C22W C96A"}, "B7": {"name": "M1 ΔGW displayed on yeast (VHH, not shown: large carriers; small tags and cut ends)", "chain": "B1 VHH with C22G, T50P, G52A, W53L, S54G, S55L, G56Q, I57S, C96W", "notes": "also called acVHH-M1 C22G C96W"}, "B8": {"name": "His tag-acVHH-V104D, soluble (VHH, not shown: small tags and cut ends)", "VHH": "B1 VHH with V104D", "notes": "also called AB1; Tag-V104D"}, "B9": {"name": "M1 ΔVA displayed on yeast (VHH, not shown: large carriers; small tags and cut ends)", "chain": "B1 VHH with C22V, T50P, G52A, W53L, S54G, S55L, G56Q, I57S, C96A", "notes": "also called acVHH-M1 C22V C96A"}, "B10": {"name": "M1 ΔWP displayed on yeast (VHH, not shown: large carriers; small tags and cut ends)", "chain": "B1 VHH with C22W, T50P, G52A, W53L, S54G, S55L, G56Q, I57S, C96P", "notes": "also called acVHH-M1 C22W C96P"}, "B11": {"name": "M1 ΔAW displayed on yeast (VHH, not shown: large carriers; small tags and cut ends)", "chain": "B1 VHH with C22A, T50P, G52A, W53L, S54G, S55L, G56Q, I57S, C96W", "notes": "also called acVHH-M1 C22A C96W"}}, "key": {"[1]": {"biological_target": "T1, acVHH-WT displayed on yeast (Aga2p-HA-tag-(Gly4Ser)3 linker-acVHH-WT-c-myc tag)", "T1 construct": "Yeast surface display fusion on S. cerevisiae EBY100", "T1 sequence (chain, as listed by the source)": "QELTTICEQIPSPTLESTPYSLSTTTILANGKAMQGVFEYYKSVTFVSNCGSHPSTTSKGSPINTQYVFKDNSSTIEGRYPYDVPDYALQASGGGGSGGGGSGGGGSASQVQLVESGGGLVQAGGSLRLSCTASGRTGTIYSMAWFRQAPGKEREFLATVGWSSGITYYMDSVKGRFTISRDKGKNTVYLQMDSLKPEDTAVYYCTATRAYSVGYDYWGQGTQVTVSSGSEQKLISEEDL", "experiment": "yeast surface display; 400 nM soluble acVHH-WT, caffeine titrated (data of FIG. 3I); mean ± S.D.", "excerpt": "(§1) Measured with yeast display and normalized to maximum binding signal (n=3, averages±standard deviations)."}, "[2]": {"biological_target": "B8", "experiment": "yeast surface display, flow cytometry (n=1)"}, "[3]": {"biological_target": "B8", "experiment": "yeast surface display, flow cytometry", "experimental": "(§2) The staining for flow cytometry characterization was performed in PBSA (PBS containing 15 μM bovine serum albumin). […] After a final washing step, the cells were analyzed with a CytoFLEX S flow cytometer (Beckman Coulter)."}, "[4]": {"biological_target": "B4", "experiment": "yeast surface display, flow cytometry; soluble acVHH-V104D with and without 10 µM caffeine", "experimental": "as §2"}, "[5]": {"biological_target": "T2, dfM1-2 displayed on yeast (Aga2p-HA-tag-(Gly4Ser)3 linker-dfM1-2-c-myc tag)", "T2 construct": "also called disulfide free M1 variant", "experiment": "yeast surface display titration with soluble acVHH-V104D, 30 µM caffeine, signal normalised to the maximum"}, "[6]": {"biological_target": "T3, dfM1-1 displayed on yeast (Aga2p-HA-tag-(Gly4Ser)3 linker-dfM1-1-c-myc tag)", "T3 construct": "also called disulfide free M1 variant", "experiment": "yeast surface display titration with soluble acVHH-V104D, 30 µM caffeine, signal normalised to the maximum"}, "[7]": {"biological_target": "T4, acVHH-M1 displayed on yeast (Aga2p-HA-tag-(Gly4Ser)3 linker-acVHH-M1-c-myc tag)", "T4 construct": "also called AB2", "experiment": "yeast surface display titration with soluble acVHH-V104D, 30 µM caffeine, signal normalised to the maximum"}, "[8]": {"biological_target": "T2, dfM1-2 displayed on yeast …", "experiment": "yeast surface display titration with soluble acVHH-V104D, + caffeine (30 µM, data of FIG. 3H); mean ± S.D."}, "[9]": {"biological_target": "T3, dfM1-1 displayed on yeast …", "experiment": "yeast surface display titration with soluble acVHH-V104D, + caffeine (30 µM, data of FIG. 3H); mean ± S.D."}, "[10]": {"biological_target": "T4, acVHH-M1 displayed on yeast …", "experiment": "yeast surface display titration with soluble acVHH-V104D, + caffeine (30 µM, data of FIG. 3H); mean ± S.D."}, "[11]": {"biological_target": "B2", "experiment": "yeast surface display, flow cytometry; soluble acVHH-V104D with and without 10 µM caffeine (n=1)"}, "[12]": {"biological_target": "B10", "experiment": "yeast surface display, flow cytometry; soluble acVHH-V104D with and without 10 µM caffeine (n=1)"}, "[13]": {"biological_target": "B3", "experiment": "yeast surface display, flow cytometry; soluble acVHH-V104D with and without 10 µM caffeine (n=1)"}, "[14]": {"biological_target": "B6", "experiment": "yeast surface display, flow cytometry; soluble acVHH-V104D with and without 10 µM caffeine (n=1)"}, "[15]": {"biological_target": "B7", "experiment": "yeast surface display, flow cytometry; soluble acVHH-V104D with and without 10 µM caffeine (n=1)"}, "[16]": {"biological_target": "B11", "experiment": "yeast surface display, flow cytometry; soluble acVHH-V104D with and without 10 µM caffeine (n=1)"}, "[17]": {"biological_target": "B9", "experiment": "yeast surface display, flow cytometry; soluble acVHH-V104D with and without 10 µM caffeine (n=1)"}, "[18]": {"biological_target": "B5", "experiment": "yeast surface display, flow cytometry; soluble acVHH-V104D with and without 10 µM caffeine (n=1)"}, "[19]": {"biological_target": "T1, acVHH-WT displayed on yeast …", "experiment": "yeast surface display, flow cytometry; soluble acVHH-V104D with 10 µM compound or without", "experimental": "Expression of the acVHH variants on yeast was induced by culturing the cells in SG-CAA medium (20 g/L galactose, 2 g/L glucose, 6.7 g/L yeast nitrogen base, 5 g/L bacto casamino acids, 10.2 g/L Na₂HPO₄*7 H₂O, 8.56 g/L NaH₂PO₄*H₂O) overnight at 20° C. and 180 rpm. Detection of full-length proteins on the surface of the cells was carried out by staining the cells with anti-c-myc AlexaFluor 488 (9E10, Thermo Fisher)."}, "[20]": {"biological_target": "T2, dfM1-2 displayed on yeast …", "experiment": "yeast surface display; 400 nM soluble acVHH-V104D, caffeine titrated (data of FIG. 3I); mean ± S.D.", "experimental": "(§3) Expression of the variants on yeast was carried out in SG-CAA as described above.\nas §1"}, "[21]": {"biological_target": "T3, dfM1-1 displayed on yeast …", "experiment": "yeast surface display; 400 nM soluble acVHH-V104D, caffeine titrated (data of FIG. 3I); mean ± S.D.", "experimental": "as §3, §1"}, "[22]": {"biological_target": "T4, acVHH-M1 displayed on yeast …", "experiment": "yeast surface display; 400 nM soluble acVHH-V104D, caffeine titrated (data of FIG. 3I); mean ± S.D.", "experimental": "as §3, §1"}}, "note": "Residue numbers refer to the chain shown, from its start. Numbers in names are those of the source.", "data": [{"binder": "B1", "values": [{"measurement": "EC50,YSD (caffeine concentration for half-maximal dimerisation)", "setting": "[1]", "result": 4300, "unit": "nM"}]}, {"binder": "B2", "values": [{"measurement": "binding result", "setting": "[2]", "result": "no binding"}]}, {"binder": "B3", "values": [{"measurement": "binding result", "setting": "[2]", "result": "no binding"}]}, {"binder": "B4", "values": [{"measurement": "binding result", "setting": "[3]", "result": "no binding"}]}, {"binder": "B5", "values": [{"measurement": "binding result", "setting": "[2]", "result": "no binding"}]}, {"binder": "B6", "values": [{"measurement": "binding result", "setting": "[2]", "result": "no binding"}]}, {"binder": "B7", "values": [{"measurement": "binding result", "setting": "[2]", "result": "no binding"}]}, {"binder": "B8", "values": [{"measurement": "binding result", "setting": "[4]", "result": "no binding (tested: 500 nM)"}, {"measurement": "EC50 (read off the curve)", "setting": "[5]", "result": "~20", "unit": "nM"}, {"measurement": "EC50 (read off the curve)", "setting": "[6]", "result": "~20", "unit": "nM"}, {"measurement": "EC50 (read off the curve)", "setting": "[7]", "result": "~30", "unit": "nM"}, {"measurement": "Kd", "setting": "[8]", "result": 21.8, "unit": "nM"}, {"measurement": "Kd", "setting": "[9]", "result": 18.8, "unit": "nM"}, {"measurement": "Kd", "setting": "[10]", "result": 30, "unit": "nM"}, {"measurement": "binding result", "setting": "[11]", "result": "no binding (tested: 500 nM)"}, {"measurement": "binding result", "setting": "[12]", "result": "no binding (tested: 500 nM)"}, {"measurement": "binding result", "setting": "[13]", "result": "no binding (tested: 500 nM)"}, {"measurement": "binding result", "setting": "[14]", "result": "no binding (tested: 500 nM)"}, {"measurement": "binding result", "setting": "[15]", "result": "no binding (tested: 500 nM)"}, {"measurement": "binding result", "setting": "[16]", "result": "no binding (tested: 500 nM)"}, {"measurement": "binding result", "setting": "[17]", "result": "no binding (tested: 500 nM)"}, {"measurement": "binding result", "setting": "[18]", "result": "no binding (tested: 500 nM)"}, {"measurement": "binding result", "setting": "[19]", "result": "no binding (tested: 500 nM)"}, {"measurement": "EC50,YSD (caffeine concentration for half-maximal dimerisation)", "setting": "[20]", "result": 124000, "unit": "nM"}, {"measurement": "EC50,YSD (caffeine concentration for half-maximal dimerisation)", "setting": "[21]", "result": 83000, "unit": "nM"}, {"measurement": "EC50,YSD (caffeine concentration for half-maximal dimerisation)", "setting": "[22]", "result": 104000, "unit": "nM"}]}, {"binder": "B9", "values": [{"measurement": "binding result", "setting": "[2]", "result": "no binding"}]}, {"binder": "B10", "values": [{"measurement": "binding result", "setting": "[2]", "result": "no binding"}]}, {"binder": "B11", "values": [{"measurement": "binding result", "setting": "[2]", "result": "no binding"}]}]}
